Experimental data: PMC2756588

T1: Abp1, P15891
T1 sequence (P15891 535-592, looked up): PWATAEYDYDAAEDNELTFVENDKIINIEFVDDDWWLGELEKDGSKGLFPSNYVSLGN

T2: Bbc1, P47068
T2 sequence (P47068 1-78, looked up): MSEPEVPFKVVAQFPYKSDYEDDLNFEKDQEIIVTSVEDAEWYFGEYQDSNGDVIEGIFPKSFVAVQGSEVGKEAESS

T3: Boi1, P38041
T3 sequence (P38041 1-86, looked up): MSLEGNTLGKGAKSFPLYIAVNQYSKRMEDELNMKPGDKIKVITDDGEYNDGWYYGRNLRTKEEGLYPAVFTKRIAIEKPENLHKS

T4: Boi2, P39969
T4 sequence (P39969 32-116, looked up): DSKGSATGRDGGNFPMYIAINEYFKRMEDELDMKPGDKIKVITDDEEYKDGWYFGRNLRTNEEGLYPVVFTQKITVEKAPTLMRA

T5: Bud14, P27637
T5 sequence (P27637 247-328, looked up): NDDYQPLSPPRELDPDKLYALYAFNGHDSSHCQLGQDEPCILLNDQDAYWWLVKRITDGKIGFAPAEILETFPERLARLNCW

T6: Bzz1-1, P38822
T6 sequence (P38822 478-572, looked up): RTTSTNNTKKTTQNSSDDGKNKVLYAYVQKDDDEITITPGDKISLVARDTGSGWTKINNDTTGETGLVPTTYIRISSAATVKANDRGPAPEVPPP

T7: Bzz1-2, P38822
T7 sequence (P38822 568-633, looked up): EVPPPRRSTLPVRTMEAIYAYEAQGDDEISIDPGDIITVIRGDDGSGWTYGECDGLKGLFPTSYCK

T8: Cdc25, P04821
T8 sequence (P04821 50-136, looked up): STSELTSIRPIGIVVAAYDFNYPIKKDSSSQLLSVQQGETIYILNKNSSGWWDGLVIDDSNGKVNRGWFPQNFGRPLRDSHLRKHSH

T9: Cyk3, Q07533
T9 sequence (Q07533 1-83, looked up): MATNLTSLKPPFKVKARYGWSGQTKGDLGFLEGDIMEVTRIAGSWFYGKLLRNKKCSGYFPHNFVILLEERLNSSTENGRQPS

T10: Fus1, P11710
T10 sequence (P11710 432-512, looked up): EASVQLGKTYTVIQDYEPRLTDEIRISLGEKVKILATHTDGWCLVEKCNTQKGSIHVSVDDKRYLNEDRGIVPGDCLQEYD

T11: Hof1, Q05080
T11 sequence (Q05080 590-669, looked up): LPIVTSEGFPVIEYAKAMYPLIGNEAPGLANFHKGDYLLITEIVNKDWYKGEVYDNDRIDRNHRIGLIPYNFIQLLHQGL

T12: Hse1, P38753
T12 sequence (P38753 208-285, looked up): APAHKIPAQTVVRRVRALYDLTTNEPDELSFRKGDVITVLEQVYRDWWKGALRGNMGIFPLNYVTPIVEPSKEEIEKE

T13: Lsb1, P53281
T13 sequence (P53281 45-122, looked up): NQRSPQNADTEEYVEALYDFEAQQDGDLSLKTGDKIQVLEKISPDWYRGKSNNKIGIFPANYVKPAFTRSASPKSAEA

T14: Lsb3, P43603
T14 sequence (P43603 385-451, looked up): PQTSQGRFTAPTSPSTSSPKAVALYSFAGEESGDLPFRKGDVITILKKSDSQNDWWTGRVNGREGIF

T15: Lsb4, P32793
T15 sequence (P32793 402-468, looked up): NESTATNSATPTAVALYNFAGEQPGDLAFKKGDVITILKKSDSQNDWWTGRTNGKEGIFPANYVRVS

T16: Myo5, Q04439
T16 sequence (Q04439 1072-1160, looked up): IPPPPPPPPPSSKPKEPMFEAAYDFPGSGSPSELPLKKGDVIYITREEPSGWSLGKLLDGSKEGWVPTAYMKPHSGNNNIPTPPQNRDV

T17: Nbp2, Q12163
T17 sequence (Q12163 103-180, looked up): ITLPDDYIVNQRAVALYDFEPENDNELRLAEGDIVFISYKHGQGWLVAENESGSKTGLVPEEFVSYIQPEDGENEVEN

T18: Pex13, P80667
T18 sequence (P80667 295-386, looked up): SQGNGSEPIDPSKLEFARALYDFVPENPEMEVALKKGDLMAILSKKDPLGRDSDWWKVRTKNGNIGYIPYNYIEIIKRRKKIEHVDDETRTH

T19: Pin3, Q06449
T19 sequence (Q06449 53-122, looked up): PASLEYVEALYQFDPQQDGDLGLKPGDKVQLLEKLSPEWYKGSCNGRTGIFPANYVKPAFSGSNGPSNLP

T20: Sla1-2, P32790
T20 sequence (P32790 60-140, looked up): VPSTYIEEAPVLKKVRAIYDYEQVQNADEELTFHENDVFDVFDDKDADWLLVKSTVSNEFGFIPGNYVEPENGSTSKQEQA

T21: Sla1-3, P32790
T21 sequence (P32790 344-424, looked up): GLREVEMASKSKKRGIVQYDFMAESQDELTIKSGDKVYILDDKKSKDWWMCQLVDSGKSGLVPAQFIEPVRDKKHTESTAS


Experiments:
Test in all cases: SPOT array
Abp1, P15891 = molecular target: T1, Abp1, P15891; conditions: median of control spots 935
Bbc1, P47068 = molecular target: T2, Bbc1, P47068; conditions: median of control spots 796
Bem1-1, P29366 = conditions: median of control spots 4282
Bem1-2, P29366 = conditions: median of control spots 4347
Boi1, P38041 = molecular target: T3, Boi1, P38041; conditions: median of control spots 1162
Boi2, P39969 = molecular target: T4, Boi2, P39969; conditions: median of control spots 1161
Bud14, P27637 = molecular target: T5, Bud14, P27637; conditions: median of control spots 956
Bzz1-1, P38822 = molecular target: T6, Bzz1-1, P38822; conditions: median of control spots 4446
Bzz1-2, P38822 = molecular target: T7, Bzz1-2, P38822; conditions: median of control spots 4538
Cdc25, P04821 = molecular target: T8, Cdc25, P04821; conditions: median of control spots 969
Cyk3, Q07533 = molecular target: T9, Cyk3, Q07533; conditions: median of control spots 1451
Fus1, P11710 = molecular target: T10, Fus1, P11710; conditions: median of control spots 1200
GST = conditions: median of control spots 978
Hof1, Q05080 = molecular target: T11, Hof1, Q05080; conditions: median of control spots 4086
Hse1, P38753 = molecular target: T12, Hse1, P38753; conditions: median of control spots 1727
Lsb1, P53281 = molecular target: T13, Lsb1, P53281; conditions: median of control spots 388
Lsb3, P43603 = molecular target: T14, Lsb3, P43603; conditions: median of control spots 406
Lsb4, P32793 = molecular target: T15, Lsb4, P32793; conditions: median of control spots 397
Myo3, P36006 = conditions: median of control spots 468
Myo5, Q04439 = molecular target: T16, Myo5, Q04439; conditions: median of control spots 471
Nbp2, Q12163 = molecular target: T17, Nbp2, Q12163; conditions: median of control spots 357
Pex13, P80667 = molecular target: T18, Pex13, P80667; conditions: median of control spots 1341
Pin3, Q06449 = molecular target: T19, Pin3, Q06449; conditions: median of control spots 2171
Rvs167, P39743 = conditions: median of control spots 2707
Sho1, P40073 = conditions: median of control spots 1148
Sla1-2, P32790 = molecular target: T20, Sla1-2, P32790; conditions: median of control spots 712
Sla1-3, P32790 = molecular target: T21, Sla1-3, P32790; conditions: median of control spots 5475

Bem1-1, P29366, sequence (P29366 55-141): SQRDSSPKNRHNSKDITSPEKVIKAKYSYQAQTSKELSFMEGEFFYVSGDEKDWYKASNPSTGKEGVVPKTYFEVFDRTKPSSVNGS
Rvs167, P39743, sequence (P39743 419-482): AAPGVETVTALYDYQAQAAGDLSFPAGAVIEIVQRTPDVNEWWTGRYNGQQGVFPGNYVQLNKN
Bem1-2, P29366, sequence (P29366 139-227): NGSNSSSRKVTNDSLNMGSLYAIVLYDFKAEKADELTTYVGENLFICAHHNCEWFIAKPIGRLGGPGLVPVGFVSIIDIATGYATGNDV
Sho1, P40073, sequence (P40073 287-367): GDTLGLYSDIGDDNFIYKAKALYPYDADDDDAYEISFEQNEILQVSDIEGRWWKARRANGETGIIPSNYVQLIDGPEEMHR

Binder | SPOT intensity (Abp1, P15891) | SPOT intensity (Bbc1, P47068) | SPOT intensity (Bem1-1, P29366) | SPOT intensity (Bem1-2, P29366) | SPOT intensity (Boi1, P38041) | SPOT intensity (Boi2, P39969) | SPOT intensity (Bud14, P27637) | SPOT intensity (Bzz1-1, P38822) | SPOT intensity (Bzz1-2, P38822) | SPOT intensity (Cdc25, P04821) | SPOT intensity (Cyk3, Q07533) | SPOT intensity (Fus1, P11710) | SPOT intensity (GST) | SPOT intensity (Hof1, Q05080) | SPOT intensity (Hse1, P38753) | SPOT intensity (Lsb1, P53281) | SPOT intensity (Lsb3, P43603) | SPOT intensity (Lsb4, P32793) | SPOT intensity (Myo3, P36006) | SPOT intensity (Myo5, Q04439) | also measured
RLPAPPPPPRRGPAP | 0 | 0 | 0 | 2 | 0 | 1 | 3 | 31 | 9 | 0 | 0 | 0 | 0 | 5 | 1 | 0 | 0 | 0 | 0 | 0 | SPOT intensity (Nbp2, Q12163): 1; SPOT intensity (Pex13, P80667): 75; SPOT intensity (Pin3, Q06449): 8; SPOT intensity (Rvs167, P39743): 1500; SPOT intensity (Sho1, P40073): 0; SPOT intensity (Sla1-2, P32790): 0; SPOT intensity (Sla1-3, P32790): 1
PAPPPPPRASRPTPN | 0 | 0 | 0 | 0 | 1 | 0 | 6 | 7 | 0 | 0 | 1 | 1 | 1 | 0 | 0 | 0 | 0 | 0 | 0 | 1 | SPOT intensity (Nbp2, Q12163): 0; SPOT intensity (Pex13, P80667): 56; SPOT intensity (Pin3, Q06449): 6; SPOT intensity (Rvs167, P39743): 514; SPOT intensity (Sho1, P40073): 0; SPOT intensity (Sla1-2, P32790): 2; SPOT intensity (Sla1-3, P32790): 0
SGVRLPAPPPPPRRG | 0 | 0 | 3 | 0 | 0 | 1 | 3 | 6 | 20 | 0 | 1 | 0 | 0 | 633 | 0 | 0 | 0 | 0 | 0 | 0 | SPOT intensity (Nbp2, Q12163): 0; SPOT intensity (Pex13, P80667): 55; SPOT intensity (Pin3, Q06449): 4; SPOT intensity (Rvs167, P39743): 3630; SPOT intensity (Sho1, P40073): 0; SPOT intensity (Sla1-2, P32790): 3; SPOT intensity (Sla1-3, P32790): 0
RRGPAPPPPPRASRP | 0 | 0 | 3 | 11 | 0 | 0 | 8 | 45 | 27 | 0 | 0 | 0 | 1 | 2 | 10 | 0 | 0 | 1 | 0 | 0 | SPOT intensity (Nbp2, Q12163): 0; SPOT intensity (Pex13, P80667): 17; SPOT intensity (Pin3, Q06449): 17; SPOT intensity (Rvs167, P39743): 3340; SPOT intensity (Sho1, P40073): 0; SPOT intensity (Sla1-2, P32790): 0; SPOT intensity (Sla1-3, P32790): 14
